In publication PMC3272265:

Legend:
[1] = mating with proven fertile normal males; details: glycan lost; control: co-caged transgenic control females
[2] = two-cell embryos after overnight incubation; details: glycan lost; control: normal eggs
[3] = EGFP acrosome status and Alexa 568-SBTI staining; details: glycan lost; control: normal eggs
[4] = displacement of Hoechst-labelled sperm by Acr3-EGFP sperm; details: glycan lost; control: normal eggs

B1: ZP3: Zp3Mut (protein)
parent chain: MASSYFLFLCLLLCGGPELCNSQTLWLLPGGTPTPVGSSSPVKVECLEAELVVTVSRDLFGTGKLVQPGDLTLGSEGCQPRVSVDTDVVRFNAQLHECSSRVQMTKDALVYSTFLLHDPRPVSGLSILRTNRVEVPIECRYPRQGNVSSHPIQPTWVPFRATVSSEEKLAFSLRLMEENWNTEKSAPTFHLGEVAHLQAEVQTGSHLPLQLFVDHCVATPSPLPDPNSSPYHFIVDFHGCLVDGLSESFSAFQVPRPRPETLQFTVDVFHFANSSRNTLYITCHLKVAPANQIPDKLNKACSFNKTSQSWLPVEGDADICDCCSHGNCSNSSSSQFQIHGPRQWSKLVSRNRRHVTDEADVTVGPLIFLGKANDQTVEGWTASAQTSVALGLGLATVAFLTLAAIVLAVTRKCHSSSYLVSLPQ
no change: other: in vivo fertility (litter size) [1] | other: in vitro fertilisation rate [2] | other: induction of sperm acrosome exocytosis [3] | other: reversibility of sperm binding [4]
